Assay results published in patent publication US9663800B2, “Alkane exporter and its use” (Nanyang Technological University, priority 2012, dated 2017).

Experiments:
ABC2 mRNA = experiment: Quantitative RT-PCR of ABC2 transcripts after alkane treatment; assay type: cell-based; settings: Y. lipolytica CLIB122, 24 h alkane treated vs. untreated, normalized to actin, p<0.05
Text: FIG. 3. mRNA transcripts levels of ABC2 and ABC3 in Y. lipolytica. Quantitative RT-PCR analysis of ABC2 (A) and ABC3 (B) in Y. lipolytica cells corresponding to treatment with octane, nonane, decane, undecane and dodecane (C8-C12). Each value of qRT-PCR was normalized to β-actin expression levels and expressed as the fold change relative to the levels detected in control samples, which were cells without alkane treatment and set equal to 1. Error bars represent the SD of triplicate.
To assess whether ABC1, ABC2, ABC3 and ABC4 are involved in alkane transport in Y. lipolytica, we analysed the effects of alkanes with different chain length (C8-C12) on the transcription levels of these four ABC transporter genes using quantitative RT-PCR.
Total RNA samples from 24 h alkane treated and untreated Y. lipolytica CLIB122 cells were prepared using RNeasy Mini Kit (Qiagen), followed by cDNA synthesis using H minus Reverse transcriptase kit (Fermentas). Quantitative RT-PCR analysis was performed on a Bio-Rad iQ5 real-time PCR detection system using SsoFast EvaGreen Supermix kit (Bio-Rad). The actin gene (YALI0D08272g) was used as reference gene for Y. lipolytica. Relative mRNA levels were derived using comparative CT method.

S. cerevisiae BY4741 [1] = experiment: Alkane susceptibility test in liquid culture; assay type: cell-based, Saccharomyces cerevisiae; settings: for decane tolerance increase: cells expressing the transporter vs. control (0.25% decane), OD600; for survival in 20% undecane / decane concentration tolerated: cells expressing the transporter; for decane concentration tolerated: control 0.25% decane
Experimental: (§1) FIG. 2. Alkane susceptibility test for S. cerevisiae. The alkane susceptibility was tested in cells expressing ABC2/3 or with empty plasmid. (A) Alkane susceptibility test on agar plate. Serial dilutions of cells expressing ABC2/3 were spotted on agar plates with alkanes (decane, undecane) as vapour phase. Plates were incubated at 28° C. for 2 days. (B) Alkane susceptibility test in liquid culture. Overnight cell culture was diluted into induction medium (final OD600=0.4) with different alkanes (decane & undecane) concentrations. The plates were incubated for 48 hr at 28° C. The OD600 value of each sample was determined and plotted against its corresponding alkane concentration. Symbols for strains are: control sample with empty plasmid (open circle), cells expressing ABC2 (filled circle), cell expressing ABC3 (filled triangle).
Overnight culture was diluted into 5 ml induction medium in 50 ml glass bottle (Sigma) at an initial OD600 of 0.4. Alkanes were added as different final concentration. Bottles were sealed tightly with butyl rubber stopper (Sigma) and silver aluminum seal (Sigma). Liquid culture was performed at 28° C. with shaking. Growth was monitored by measuring the OD600 at different time point. Cell culture used for time point OD checking was collected from the glass bottle using needle and syringe.
To further analyze the effect of ABC2 and ABC3 toward decane and undecane, alkane susceptibility tests in liquid culture were conducted. […] With the expression of ABC2, decane tolerance was boosted about 80-fold (20% vs. 0.25% decane) and cells can survive in 20% undecane. For ABC3, decane tolerance is increased slightly by about 3-fold (0.75% vs. 0.25% decane) and cells are resistant to 20% undecane. It is apparent that the expression of ABC2 and ABC3 transporters improved the tolerance toward C10 and C11 alkanes.

S. cerevisiae BY4741 [2] = experiment: Alkane susceptibility test on agar plate; assay type: cell-based, Saccharomyces cerevisiae; settings: cells expressing the transporter, 28° C., 2 days; for cell tolerance toward decane: decane as vapour phase; for cell tolerance toward undecane: undecane as vapour phase
Experimental: as §1
Alkane susceptibility test on plates was performed according to the methods of Mauersberger et al.. Exponentially growing cells in induction medium were centrifuged and re-suspended with induction medium at OD600=1. Ten microliter aliquots of successive 10-fold dilutions (non diluted, 10-1, 10-2, 10-3) of cells were spotted onto the induction medium plate. Medium chain alkanes were supplied as vapour phase by placing 200 μl alkane on a sterile filter paper in the lid of the petri dish. Plates were incubated at 28° C. for 2 days.
Toxicity test was implemented to study the effect of ABC2 and ABC3 on the tolerance of the cells toward alkanes. The toxic effects of alkanes on S. cerevisiae with ABC2 and ABC3 were measured through alkane susceptibility test on agar plates. […] It was observed that the expression of ABC2 would lead higher tolerance toward decane than ABC3.

S. cerevisiae BY4741 [3] = experiment: Intracellular alkane accumulation (GC-FID) in cells expressing ABC2/3; assay type: cell-based, Saccharomyces cerevisiae; settings: S. cerevisiae BY4741 expressing the transporter, 48 h, control with empty plasmid; for lower intracellular decane level relative to the control: 0.5% decane; for reduction of intracellular undecane level compared to the control sample: 20% undecane
Experimental: FIG. 1. Intracellular alkane accumulation by ABC2 and ABC3. S. cerevisiae BY4741 with and without ABC2/3 were cultured under exposure of 0.5% alkane or 20% undecane. After 48 h incubation, intracellular alkane levels were measured. Intracellular alkane levels were normalized to that of control carrying empty plasmid. Data shown are the mean±SD of four biological replicates.
Intracellular alkane accumulation was analysed with GC-FID after 48 h incubation with 0.5% decane or 20% undecane.
After induction for 48 h with or without addition of alkanes, S. cerevisiae cells transformed with pYES2, pYES2ABC2 and pYES2ABC3 were harvested at 6000 g for 5 min at 4° C. After washing with 50 mM Tris.Cl, cells were equally divided into two parts, one part for alkane GC analysis and the other for determination of total protein concentration. For GC analysis, cell pellets were re-suspended in freshly prepared Chloroform/Methanol (v/v, 2:1). Dodecane was added into cell suspension as an internal standard. Acid-washed glass beads were added until the suspension was covered. Cells were then lysed by mechanical agitation using FastPrep-24 (MPBio) for 6 min at 6 m/s. The crude extract was obtained by pipette. After addition of autoclaved ddH2O, the crude extract was emulsified for 10 min by inversion. After centrifuge, the crude extract was separated into two phases. The bottom phase containing alkane was transferred into a new 1.5 ml microcentrifuge tube and purified as above with HPLC grade chloroform and autoclaved ddH2O until particulate matter was no longer observable. The purified solution was transferred into a clear GC vial for GC analysis. To check the total protein concentration, Cell pellets were re-suspended into 50 mM Tris.Cl and lysed via mechanical agitation with acid-washed glass beads using FastPrep-24 for 6 min at 6 m/s. Protein concentration of obtained crude extract was determined using the Bradford protein assay (Bio-Rad). Intracellular alkane levels were normalized to internal standard and cell lysate protein content.

Molecule	mRNA levels of ABC2 (ABC2 mRNA)	alkane concentration causing a significant decrease in viability of the control cells (S. cerevisiae BY4741 [1]; control cells with empty plasmid, 48 hr, 28° C.)	cell tolerance toward decane (S. cerevisiae BY4741 [2])	cell tolerance toward undecane (S. cerevisiae BY4741 [2])	lower intracellular decane level relative to the control (S. cerevisiae BY4741 [3])	reduction of intracellular undecane level compared to the control sample (S. cerevisiae BY4741 [3])	decane tolerance increase (S. cerevisiae BY4741 [1]; 48 hr, 28° C.)	survival in 20% undecane (S. cerevisiae BY4741 [1])	decane concentration tolerated (S. cerevisiae BY4741 [1]; 48 hr, 28° C.)
CCCCCCCC [octane]	significantly increased	–	–	–	–	–	–	–	–
CCCCCCCCCCC [undecane]	significantly increased	20%	–	–	–	–	–	–	–
ABC3: Y. lipolytica ABC transporter, SEQ ID NO. 5, GenBank CAG82646, heterologously expressed in S. cerevisiae (protein, listed as Yarrowia lipolytica) MTDPVPITQDPTIYSSQQDAEIRSLAESIHSQHSNNSNNSTELTNPYVDTSDPELDPWSGQFNSRKWSRTILGLKRRYGTSKEITAGVSFKNLGAYGYGGGADYQKTVANAVLGLEGVVRTLFHLEKKEDKVQILSDFNGVLWPGETCVVLGRPGSGCTTLLKSIACETYGFQLDKETEWNYQGIPRKIMQKTCRGEIVYNAEVDVHFPHLTVGDTLMFASLARTPQNRFDGVTREQYAKHTRDVTMASLGLSHTLDTKVGNDFVRGVSGGERKRVSIAESIVCGSPLQCWDNSTRGLDAATATEFLRWLRHSAELTGASMFVSLYQASQEAYELFDKVTVLYEGQQIYFGPGEQAKQYFEEMGFECPHRQTTGDFLTSITSPAERIVAPGFEGKTPRTASEFAERWRQSQAYANLQEEIERFNTEFPVGGNRVADIMELKQEKQSDHIKVSSPYTISIPMQVKLCLTRGFQRLRGDLSMALTTVLGNFVVALILSSMFYNMPEDTSSFFSRGALLFFAMLMNAMSSVLEIIVLYELRPIVEKHQRYAMYHPFCEALASIICDFPTKFLTMLCVNVTLYFMSNLRREAGPFFIFFLFTLLCVLAMSMIFRTIAAVTKTLQQALAPAAVIILALIIYTGFTLPISYMRGWARWINYIDPIAYGFEAVMVNEFRNREFPCALFIPQQSTYDQLGSPYQGCMAVGAKPGERFVNGDRYLEMAFDYSQAHLWRNLGIMFGFILFFAFTYLTAVEFIQSAKSKGEVLVFLRSSLKQRKKRAHLMDVEANAEKVGAAQDREILVQQEEGQQEETSSCTPSDSTPKDIFQWKDVCYDIKVKGGEKRLLDNVDGWVKPGTLTALMGCSGAGKTTLLDVLADRKATGVITGDMRVNGQKRDASFQRKTGYVQQQDLHTATSTVREALEFSALLRQPSNVPKAEKIAYVDEVIDILEMQAYADAVVGVPGEGLNVEQRKRLTIGVELAAKPELLLFLDEPTSGLDSQTAWSIICLLKKLANRGQAILCTIHQPSAILFQEFDRLLFMTLGGKTVYYGDIGANSSALINYFESKGADPCPEEANPAEWMLAAIGAAPGSIAKHDWAVVWNESEERARERDLLDKMAEELAAQSTHDEKNELVTSKSVGSSQTSSSSYSAKSQYATSQATQLYYLTKRLWTYYWRSPRYIWSKLLMSIASALFIGFSYYKASQDIQGLQNQMFAFFMLFLIFVIIMVQILPHFVAQRELYEARERSSMAYSWQAFMGSNILVELPWQTLVAVLVFFCFYYPIGLQNNATGHLGERGALFFLLLWSFYVYNSTFAHMMGAAFENKENAATIGYLLFALCLIFCGVLATKEDMPHFWIFMYRVSPLTYLISGLLSAGVGETRVECTDNELVLFKPMNGTNCGKYMHPFMEGLGHTDMPMGYLVDPSATDMCGYCPISNTNGYLDQIDVKYSQRWRNYGILFAYPAFNVFMAFAFYYIFRVPKKSRKQKA	–	–	considerably improved	considerably improved	~5 fold	approximately 30 fold	about 3 fold	resistant	0.75%
ABC2: Y. lipolytica ABC transporter, SEQ ID NO. 4, GenBank CAG82364, heterologously expressed in S. cerevisiae (protein, listed as Yarrowia lipolytica) MEQTPPDYTGLDKNIDAEVRSIAESMYQTRREGVNDSDTDEELQRTNTIQPNLNVNPFLDTSDPQLDPLSKEFNSRKWIKTILGLKARFGNSRSISAGVSFKNLSAFGYGGGNDYQKTFTNSVMAIGPMIKKVLGGNKGSEVQILRHFDGLVRAGETCVVLGRPGSGCTTFLKSVACETYGFHLGEKSEWNYQGVPRDVMQKNARGEIVYNAEVDVHFPHLTVGDTLLFAALARTPQNRLEGVSREQHATHVRDVSMAMLGLTHTMDTKVGNDFVRGVSGGERKRVSIAESVVCGAPLQCWDNSTRGLDAANATEFIRSLRLSAEMTDASMFVSLYQASQEAYDMFDKVCVLYEGRQIYFGKTTEAKQFFLDLGFDCADRQTTGDFLTSLTNPIERIIRPGWESRVPRTPDDFEKCWLESEARQLLLQDIDEFNNEFVLGGPALDNFMGLRKDAQAKHTRVQSPYTISWPMQTRLCLWRGFLRIKGDMSTDIATVFGNFVMALVLSSMFYNMPQTTESFFSRGALLFFAILINAFASILEILSLYEQRPIVDKQNRYAMYHPAADALAAIITTFPTKTLTLVSVNLTIYFMTNLRREVGPFFIFFLFSLLCTMAMSMIFRTIGSVTKTLEQALAPASIIILALVIYTGFSLPISYMHGWARWINWLNPVAYGFEAVMVNEFRNREYECSMFVPSGGAYENVSLDYRSCAAVGAEPGLRFVNGDAFINQSYEYYNAHLWRNMGILFGFIIFFGAFYLFAVEYIQGAKSKGEVLVFRKEHIKKQRKEKNGDIESGVTMAGEKGTQESESSNTSINLQAQRGIYQWKDVCYDIKVKDGERRLLDHVDGFVKPGTLTALMGASGAGKTTLLDVLADRKSTGVVTGEMLVNGEHRDGSFQRKTGYVQQQDLHTATATVRESLEFSALLRQPSSIPESEKLAYVDEVIRILEMETYADAVVGVPGEGLNVEQRKRLTIGVELAAKPELLLFLDEPTSGLDSQTAWSIVKLLKKLAANGQAILCTIHQPSAILFQEFDRLLFLASGGRTVYYGDIGPQSSILTEYFERNGADPCPKQGNPAEWMLEVIGAAPGSTAKRDWPVVWAESPERAAKREELDEMARTVERVQTNTTERDSTGYSDSDQFAVGWWTQFKIVSKRQFQALWRTPSYLWSKVFLCAASAIFIGFSFFKAPNDMQGLQNKMFSFFMLFLIFNTVVEQIIPQFDKMRELYEARERSSKTYSWQVFMGSNMVVELIWQFFMGVIVFFCFYYPVGFQWTAEYNDSVHERGGLFFLYVLLLFLYNSTFAHMLIAGIDNKDTAAQIGTLLFTLMLLFCGVLATKEQMPGFWVFMYRVSPLTYFVGGMMATGMGRAPVTCSPHELVRFPAVPGKSCGEYMDGFISALGDSAGYLVSSSADMCEYCPMKSSDQFLDSVDISYTQRWRNWGILWAYPLFNIFAAFALYYFFRVPKKSKAQKA	–	–	considerably improved	considerably improved	~5 fold	approximately 30 fold	about 80 fold	can survive	20%
